Reference: US20250332297A1, “DLL3-SPECIFIC BINDING CONSTRUCTS AND THEIR USE IN RADIOTHERAPY” (MOLECULAR PARTNERS AG, priority 2024, published 2025)

Key:
[1] = Dose response finding (tolerability) in WT CD1 mice
[2] = Pharmacokinetic analysis in WT BALBc mice (serum, ELISA); type: in vivo, mouse; settings: 1 mg/kg i.v.
Source text: The pharmacokinetic (PK) properties of lead-labelled DARPin (MAM160, MAM279, MAM282, MAM283) conjugates were investigated in mice, including to determine the terminal half-life (or serum half-life) of these conjugates.
In brief, DARPins MAM279, MAM283, MAM160 and MAM282 were conjugated to the chelator DOTAM, via a C-terminal Cysteine containing tag and a connector, as described in Example 3. The conjugates were then labelled with natural lead (Pb). The protein components of the conjugates corresponded to SEQ ID NOs: 15 to 18, respectively. These lead-labelled DARPin conjugates were injected i.v. at 1 mg/kg into WT BALBc mice. Serum was collected 2 min, 10 min, 30 min, 1 h, 4 h, 24 h, 48 h, and 72 h post-injection. DARPins were detected and measured by ELISA. The data were expressed as the DARPin concentration in serum (nmol/L).
In brief, lead-labelled MAM279 conjugate, as described in Example 13, was injected i. at 0.1 mg/kg or at 1 mg/kg into the tail vein of WT BALBc mice. Serum was collected 2 min, 10 min, 30 min, 1 h, 4 h, 24 h, 48 h, and 72 h post-injection for MAM279 conjugate injected at 1 mg/kg, and 2 min, 30 min, 4 h, 24 h, 30 h, 48 h, 72 h, 96 h, and 168 h post-injection for MAM279 conjugate injected at 0.1 mg/kg. DARPins were detected and measured by ELISA. The data were expressed as the DARPin concentration in serum (nmol/L).
In brief, natural lead-labelled MAM279 conjugate, as described in Example 13, was injected i.v. at different doses (0.001 mg/kg, 0.01 mg/kg, 0.1 mg/kg, or 1 mg/kg) into the tail vein of WT BALBc mice. Similarly, unconjugated Rova was injected iv. at 1 mg/kg into the tail vein of WT BALBc mice. Serum was collected 2 min, 10 min, 30 min, 1 h, 4 h, 24 h, 48 h, and 72 h post-injection for MAM279 conjugate injected at 1 mg/kg, and 2 min, 30 min, 4 h, 24 h, 30 h, 48 h, 72 h, 96 h, and 168 h post-injection for MAM279 conjugate injected at 0.1 mg/kg, 0.01 mg/kg and 0.001 mg/kg. Serum was collected 2 min, 30 min, 4 h, 24 h, 30 h, 48 h, 72 h, 96 h, and 168 h post-injection for Rova antibody injected at 1 mg/kg. DARPins and Rova were detected and measured by ELISA. Rova PK characteristics were calculated with time points between 4 h and 168 h and MAM279 conjugate PK characteristics were calculated with time points between 4 h and 72 h. The data were expressed as the DARPin or Rova concentration in serum (nmol/L). Results are shown in FIGS. 19A and 19B and Table 22.

mouse serum albumin = target: T1, mouse serum albumin (mouse, UniProt P07724 25-608); test: SPR (Bruker Sierra SPR-32), MSA on chip, DARPin as analyte, 1:1 Langmuir fit
T1 construct: also called MSA
Method: (§1) Similarly, a SPR assay was used to determine the binding kinetics to human or mouse serum albumin. […] All analytes (3-fold dilution ranging from 1000-12.35 nM) were injected in succession for 240 s (25 μl/min) and dissociation was recorded for 600 s (25 μl/min).

human serum albumin = target: T2, human serum albumin (human, UniProt P02768 25-609); test: SPR (Bruker Sierra SPR-32), HSA on chip, DARPin as analyte, 1:1 Langmuir fit
T2 construct: also called HSA
Method: as §1

[3] = target: T3, Human DLL3 expressed on cells (HEK293T-hDLL3, NCI-H82, SHP-77, MC38-hDLL3) (human, UniProt Q9NYJ7 27-618); test: flow cytometry titration on HEK293T-hDLL3 cells, with HSA
T3 construct: also called DLL3 endogenously expressed on human cells
T3 sequence: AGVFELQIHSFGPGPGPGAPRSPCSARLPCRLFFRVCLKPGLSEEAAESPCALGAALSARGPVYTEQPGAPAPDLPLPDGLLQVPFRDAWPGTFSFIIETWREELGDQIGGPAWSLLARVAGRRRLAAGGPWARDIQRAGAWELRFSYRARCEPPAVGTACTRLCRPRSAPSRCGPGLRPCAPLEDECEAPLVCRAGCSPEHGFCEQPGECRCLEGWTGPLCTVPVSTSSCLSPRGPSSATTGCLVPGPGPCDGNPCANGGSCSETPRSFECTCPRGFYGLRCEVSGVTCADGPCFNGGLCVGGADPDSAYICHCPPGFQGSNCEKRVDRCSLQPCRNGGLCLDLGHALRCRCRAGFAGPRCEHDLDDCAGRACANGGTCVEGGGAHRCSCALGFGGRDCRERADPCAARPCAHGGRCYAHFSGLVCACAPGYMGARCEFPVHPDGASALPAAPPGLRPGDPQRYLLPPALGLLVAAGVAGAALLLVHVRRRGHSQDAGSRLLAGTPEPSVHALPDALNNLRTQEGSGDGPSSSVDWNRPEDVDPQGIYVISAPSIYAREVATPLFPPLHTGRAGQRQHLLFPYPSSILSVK
Method: (§2) Cell binding titration assays were performed for selected His-tagged single domain (1 D) and two domain (2D) designed ankyrin repeat proteins to determine binding to human DLL3 expressed on HEK293T-huDLL3 cells in absence and presence of human serum albumin. […] HEK293T-hDLL3 cells are HEK293T cells that were stably transfected to express human DLL3 on their surface.
(§3) In brief, 1×10⁵ cells/well were resuspended in 100 μl DARPin dilution (500 nM, 1:5 serial diluted) and incubated for 1 h at 4° C. Cells were washed twice with PBS and resuspended in 100 μl anti-DARPin antibody (rabbit anti-DARPin 1.4.8) and LIVE/DEAD fixable cell stain (1:1000, Thermo Fisher #L34957). This step was performed in absence and presence of […] Human Serum Albumin (CSL Behring #150570). After incubation and washing, cells were incubated with detection antibody for 30 minutes (Goat […] IgG (H+L), AF647, Thermo Fisher #21445). Cells were fixed (Paraformaldehyde Solution, LucernaChem) and acquired at Attune N×T (Thermo Life Technologies). Raw fcs files were exported and analyzed using FlowJo software. MFI values of live AF647-positive cells were exported from FlowJo and plotted using GraphPad Prism software.

[4] = target: T3, Human DLL3 expressed on cells …; test: flow cytometry titration on HEK293T-hDLL3 cells, without HSA
Method: as §2, §3

[5] = target: T4, hDLL3 ECD-Avi-Fckih (biotinylated extracellular domain of human DLL3, residues 27 to 466, Avi-tag, 3C site, … (human, UniProt Q9NYJ7 27-466, biotinylated at the Avi-tag)); test: SPR (ProteOn), biotinylated hDLL3 ECD-Avi-Fckih on chip, DARPin as analyte, 1:1 Langmuir fit
T4 construct: The make-up of the second Fc chain of the knob-into-hole pair is not described; also called bio-DLL3; recombinant human DLL3; not shown: Avi-tag, 3C protease recognition site and Fc knob into hole
T4 sequence: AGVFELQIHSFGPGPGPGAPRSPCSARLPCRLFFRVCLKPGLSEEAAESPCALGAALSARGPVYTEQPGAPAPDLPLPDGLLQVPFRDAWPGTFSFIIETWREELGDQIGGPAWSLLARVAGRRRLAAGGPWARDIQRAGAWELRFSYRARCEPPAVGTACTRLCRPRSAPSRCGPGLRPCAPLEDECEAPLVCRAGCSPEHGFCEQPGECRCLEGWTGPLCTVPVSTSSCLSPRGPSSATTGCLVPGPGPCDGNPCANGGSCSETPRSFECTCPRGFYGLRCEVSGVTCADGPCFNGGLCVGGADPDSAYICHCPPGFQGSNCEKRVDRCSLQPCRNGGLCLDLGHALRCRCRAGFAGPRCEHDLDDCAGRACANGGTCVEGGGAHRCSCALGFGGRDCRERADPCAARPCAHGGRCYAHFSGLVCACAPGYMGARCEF
Method: Kinetic binding parameters and binding affinities of two domain (2D) ankyrin repeat proteins comprising an ankyrin repeat domain with binding specificity for DLL3 and an ankyrin repeat domain with binding specificity for serum albumin were determined by surface plasmon resonance (SPR) multi-trace analysis.
In brief, a SPR assay was used to determine the binding kinetics to the target human DLL3. The data were generated using BioRad ProteOn instrument in SPR running buffer (PBS, pH 7.4 containing 0.005% Tween 20®). […] The chip was coated with biotinylated target (bio-DLL3) to reach a signal intensity of 1780 RU. […] Each injection was followed by a regeneration step with 16 mM H₃PO₄ for 18 s. […] The bio-DLL3 target used was as described in U.S. 63/550,951, i.e. the extracellular domain (ECD) of human DLL3 protein (Q9NYJ7, Gene ID: 10683, residues 27 to 466; purchased from Evitria) linked via an Avi-tag (for site-directed biotinylation), followed by a 3C protease recognition site, to a Fc knob into hole (hDLL3 ECD-Avi-Fcₖᵢₕ).

T1 sequence (P07724 25-608 limits assumed): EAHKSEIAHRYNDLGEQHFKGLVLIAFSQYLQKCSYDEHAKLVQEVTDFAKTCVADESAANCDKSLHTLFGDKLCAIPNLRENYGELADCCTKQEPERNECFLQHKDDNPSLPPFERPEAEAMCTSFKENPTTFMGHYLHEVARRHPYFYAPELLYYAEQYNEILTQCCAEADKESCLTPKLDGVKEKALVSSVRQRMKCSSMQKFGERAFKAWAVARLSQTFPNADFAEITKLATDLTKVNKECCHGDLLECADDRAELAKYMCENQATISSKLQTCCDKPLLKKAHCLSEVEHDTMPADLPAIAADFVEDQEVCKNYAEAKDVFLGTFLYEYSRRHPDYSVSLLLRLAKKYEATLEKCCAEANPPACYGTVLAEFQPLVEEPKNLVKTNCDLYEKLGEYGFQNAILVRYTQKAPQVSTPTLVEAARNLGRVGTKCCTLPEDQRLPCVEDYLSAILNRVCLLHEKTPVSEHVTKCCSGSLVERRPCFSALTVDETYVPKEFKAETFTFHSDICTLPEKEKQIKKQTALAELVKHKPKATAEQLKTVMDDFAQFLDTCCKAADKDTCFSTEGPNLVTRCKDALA

B1: MAM283 conjugate: SEQ ID NO: 16 conjugated to DOTAM-maleimide, labelled with Pb-212 (natural lead in PK studies) (conjugate)
chain: GSDLGKKLLEAARAGQDDEVRELLKAGADVNAKDYFSHTPLHLAARNGHLKIVEVLLKAGADVNAKDFAGKTPLHLAADAGHLEIVEVLLKAGADVNAQDIFGKTPADIAADAGHEDIAEVLQKAAGSPTPTPTTPTPTPTTPTPTPTGSDLGKKLLAAAADGQDDEVRELLQAGADVNAKDLFGYTPLHLAAWRGHLEIVEVLLEAGADVNAKDAAGETPLHLAAWFGHLEIVEVLLEAGADVNAQDVQGKTPADLAAKEGHEDIAEVLQQAAGSGSC
modifications: DOTAM-maleimide, Pb-212 label; Ankyrin repeat protein with tag (GS-MAM283-tag)
appearance of animals ([1]; Pb-212 labelled conjugate injected once at 10 μCi, 20 μCi and 30 μCi i.v., WT CD1 mice): animals appeared healthy and active
body weight (BW) change ([1]; Pb-212 labelled conjugate injected once at 10 μCi, 20 μCi and 30 μCi, WT CD1 mice, recovered within up to about 10 days): Minimal weight loss
toxicity ([1]; Pb-212 labelled conjugate, injected dose of 60 μCi, WT CD1 mice): Toxicity was observed
hematology profile (white blood cells, lymphocytes, monocytes, neutrophils) ([1]; within up to 28 days after injection of 10 μCi, 20 μCi and 30 μCi doses (data not shown)): complete recovery
serum half-life [2]: 12.7 h

B2: MAM160 (two domain ankyrin repeat protein, N-terminal His6-TEV tag) (designed binder)
chain: MRGSHHHHHHENLYFQDLGKKLLEAARAGQDDEVRELLKAGADVNAKDYFSHTPLHLAARNGHLKIVEVLLKAGADVNAKDFAGKTPLHLAADAGHLEIVEVLLKAGADVNAQDIFGKTPADIAADAGHEDIAEVLQKAAGSPTPTPTTPTPTPTTPTPTPTGSDLGTKLLSAAADGQDDEVRELLQAGADVNAKDLFGYTPLHLAAWRGHLEIVEVLLEAGADVNAKDAAGLTPLHLAAWFGHLEIVEVLLEAGADVNAQDVQGVTPADLAAKEGHEDIAEVLQQAA
notes: also called 2D DARPin
Kd (mouse serum albumin): 336 nM
koff (mouse serum albumin): 0.0271 s⁻¹
kon (mouse serum albumin): 80400 M⁻¹ s⁻¹
Kd (human serum albumin): 95.9 nM
koff (human serum albumin): 0.0105 s⁻¹
kon (human serum albumin): 110000 M⁻¹ s⁻¹
EC50 [3]: 36.6 nM
EC50 [4]: 18.9 nM
Kd [5]: 1.99 nM
koff [5]: 2.01e-05 s⁻¹
kon [5]: 10100 M⁻¹ s⁻¹
